# Values of other authors in PMC3124085.
# Target: HIV-1 Gag p6 p6 (Human immunodeficiency virus 1) (UniProt O93182)
# Sequence (O93182 450-500): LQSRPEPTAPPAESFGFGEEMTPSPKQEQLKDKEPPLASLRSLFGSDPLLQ
# TSG101 UEV, sequence (Q99816 1-148): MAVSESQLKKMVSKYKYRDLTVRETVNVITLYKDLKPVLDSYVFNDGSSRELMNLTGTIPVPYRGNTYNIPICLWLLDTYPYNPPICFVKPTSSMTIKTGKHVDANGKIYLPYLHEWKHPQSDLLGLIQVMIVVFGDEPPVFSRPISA
substance,measurement,value
TSG101 UEV (from UniProt Q99816),Kd,27 µM
